Test [1] has as its target Pwl2-2 (Magnaporthe oryzae). The experiment in a line: ITC.
The target in test [2] is Pwl2-3 (Magnaporthe oryzae). The experiment in a line: ITC.

As for “HMA domain of OsHIPP43 (residues 26 to 101) (from UniProt Q8LJL3 26-101) (domain or fragment)”, the Kd came to 141 nM in test [1] and 35 nM in test [2].
